Results published in US20240000957A1 (published 2024).
*1 amine or outer side, *2 acyl side, *3 side chain or, on linkers, in order; H or OH if unused. Bridges are numbered along the chain shown (N, C = ends). Where no end group is shown, it is not given here. [ ]: non-standard residue; d: D form. TATA = O=C(CC[*:1])N1CN(C(=O)CC[*:2])CN(C(=O)CC[*:3])C1; 2Nal = N[C@@H](Cc1ccc2ccccc2c1)C(=O)O; βAla = NCCC(=O)O; Sar = CNCC(=O)O

B1: Compound 81 (peptide)
peptide: TPRCPLVNPLCLMPGWTCA
modifications: linker 4-11-18 via TATA; not fully specified (C-terminus)
B2: Compound 64 (peptide)
peptide: ACPLVNPLCLHPGWTCA
modifications: linker 2-9-16 via TATA; not fully specified (C-terminus)
B3: Compound 53 (peptide)
peptide: ACPMVNPLCLHPGWICA
modifications: linker 2-9-16 via TATA; not fully specified (C-terminus)
B4: Compound 54 (peptide)
peptide: ACPLVNPLCLHPGWICA
modifications: linker 2-9-16 via TATA; not fully specified (C-terminus)
B5: Compound 55 (peptide)
peptide: ACPLVNPLCLHPGWRCA
modifications: linker 2-9-16 via TATA; not fully specified (C-terminus)
B6: Compound 57 (peptide)
peptide: ACPLVNPLCLVPGWSCA
modifications: linker 2-9-16 via TATA; not fully specified (C-terminus)
B7: Compound 82 (peptide)
peptide: ACPLVNPLCLAPGWTCA
modifications: linker 2-9-16 via TATA; not fully specified (C-terminus)
B8: Compound 84 (peptide)
peptide: ACPLVNPLCLEPGWTCA
modifications: linker 2-9-16 via TATA; not fully specified (C-terminus)
B9: Compound 86 (peptide)
peptide: ACPLVNPLCLHPGWSCA
modifications: linker 2-9-16 via TATA; not fully specified (C-terminus)
B10: Compound 97 (peptide)
peptide: ACPMVNPLCLHPGWTCA
modifications: linker 2-9-16 via TATA
B11: Compound 85 (peptide)
peptide: ACPLVNPLCLEPGWTCAKR
modifications: linker 2-9-16 via TATA; not fully specified (C-terminus)
B12: Compound 88 (peptide)
peptide: Ac-CPLVNPLCLHPGWSCRGQ
modifications: linker 1-8-15 via TATA; not fully specified (C-terminus); printed as Ac-CPLVNPLCLHPGWSCRGQ
B13: Compound 93 (peptide)
peptide: ACPLVNPLCLHPG[2Nal]SCRGQ
modifications: linker 2-9-16 via TATA; not fully specified (C-terminus); printed as ACPLVNPLCLHPG(2Nal)SCRGQ
B14: Compound 94 (peptide)
peptide: ACPLVNPLCLTPGWTCTNT
modifications: linker 2-9-16 via TATA; not fully specified (C-terminus)
B15: Compound 15 (peptide)
peptide: ACMNDWWCAMGWKCA
modifications: linker 2-8-14 via TATA
B16: Compound 16 (peptide)
peptide: ACVPDRRCAYMNVCA
modifications: linker 2-8-14 via TATA
B17: Compound 17 (peptide)
peptide: [βAla][Sar][Sar][Sar][Sar][Sar][Sar][Sar][Sar][Sar][Sar]ACVPDRRCAYMNVC
modifications: linker 13-19-25 via TATA; not fully specified (C-terminus); printed as (β-Ala)-Sar10-ACVPDRRCAYMNVC
B18: Compound 18 (peptide)
peptide: DLRCGGDPRCAYMNVCA
modifications: linker 4-10-16 via TATA
B19: Compound 19 (peptide)
peptide: SRPCVIDSRCAYMNVCA
modifications: linker 4-10-16 via TATA
B20: Compound 20 (peptide)
peptide: ESRCSPDARCAYMNVCA
modifications: linker 4-10-16 via TATA
B21: Compound 21 (peptide)
peptide: HSGCRPDPRCAYMNVCA
modifications: linker 4-10-16 via TATA
B22: Compound 22 (peptide)
peptide: GSGCKPDSRCAYMNVCA
modifications: linker 4-10-16 via TATA; not fully specified (C-terminus)
B23: Compound 23 (peptide)
peptide: ETVCLPDSRCAYMNVCA
modifications: linker 4-10-16 via TATA; not fully specified (C-terminus)
B24: Compound 25 (peptide)
peptide: ACVPDRRCAFENVCVDH
modifications: linker 2-8-14 via TATA; not fully specified (C-terminus)
B25: Compound 26 (peptide)
peptide: ACVPDRRCAFMNVCEDR
modifications: linker 2-8-14 via TATA; not fully specified (C-terminus)
B26: Compound 27 (peptide)
peptide: ACVPDRRCAFQDVCDHE
modifications: linker 2-8-14 via TATA; not fully specified (C-terminus)
B27: Compound 28 (peptide)
peptide: ACVPDRRCAFRDVCLTG
modifications: linker 2-8-14 via TATA; not fully specified (C-terminus)
B28: Compound 33 (peptide)
peptide: ACTKPTGFCAYPDTICA
modifications: linker 2-9-16 via TATA; not fully specified (C-terminus)
B29: Compound 34 (peptide)
peptide: ACRGEWGYCAYPDTICA
modifications: linker 2-9-16 via TATA; not fully specified (C-terminus)
B30: Compound 35 (peptide)
peptide: ACRNWGMYCAYPDTICA
modifications: linker 2-9-16 via TATA; not fully specified (C-terminus)
B31: Compound 36 (peptide)
peptide: ACPDWGKYCAYPDTICA
modifications: linker 2-9-16 via TATA; not fully specified (C-terminus)
B32: Compound 38 (peptide)
peptide: ACSSCWAYPDSVCA
modifications: linker 2-5-13 via TATA; not fully specified (C-terminus)
B33: Compound 39 (peptide)
peptide: ACQSCWAYPDTYCA
modifications: linker 2-5-13 via TATA; not fully specified (C-terminus)
B34: Compound 46 (peptide)
peptide: ACGFMGLEPCELFCA
modifications: linker 2-10-14 via TATA; not fully specified (C-terminus)
B35: Compound 40 (peptide)
peptide: ACGFMGLEPCETFCA
modifications: linker 2-10-14 via TATA; not fully specified (C-terminus)
B36: Compound 42 (peptide)
peptide: ACGFMGLEPCEMVCA
modifications: linker 2-10-14 via TATA; not fully specified (C-terminus)
B37: Compound 44 (peptide)
peptide: ACGFMGLEPCELVCA
modifications: linker 2-10-14 via TATA; not fully specified (C-terminus)
B38: Compound 50 (peptide)
peptide: ACGFMGLEPCEMYCA
modifications: linker 2-10-14 via TATA; not fully specified (C-terminus)
B39: Compound 41 (peptide)
peptide: ACGFMGLVPCEVHCA
modifications: linker 2-10-14 via TATA; not fully specified (C-terminus)
B40: Compound 43 (peptide)
peptide: ACGFMGLEPCVTYCA
modifications: linker 2-10-14 via TATA; not fully specified (C-terminus)
B41: Compound 45 (peptide)
peptide: ACGFMGLVPCNVFCA
modifications: linker 2-10-14 via TATA; not fully specified (C-terminus)
B42: Compound 47 (peptide)
peptide: ACGFMGLEPCELFCMPK
modifications: linker 2-10-14 via TATA; not fully specified (C-terminus)
B43: Compound 49 (peptide)
peptide: ACGFMGLEPCELYCAHT
modifications: linker 2-10-14 via TATA; not fully specified (C-terminus)
B44: Compound 51 (peptide)
peptide: ACGFMGLVPCELYCADN
modifications: linker 2-10-14 via TATA; not fully specified (C-terminus)
B45: Compound 52 (peptide)
peptide: ACPLVNPLCLTSGWKCA
modifications: linker 2-9-16 via TATA; not fully specified (C-terminus)
B46: Compound 56 (peptide)
peptide: ACPLVNPLCNLPGWTCA
modifications: linker 2-9-16 via TATA; not fully specified (C-terminus)

biological target: T1, Human EphA2 (Ecto), C-terminal polyHis (Human, UniProt P29317 24-537); experiment: FP competition vs Reference Compound C
T1 construct: extracellular domain; R&D systems 3035-A2 or in-house
T1 sequence (P29317 24-537): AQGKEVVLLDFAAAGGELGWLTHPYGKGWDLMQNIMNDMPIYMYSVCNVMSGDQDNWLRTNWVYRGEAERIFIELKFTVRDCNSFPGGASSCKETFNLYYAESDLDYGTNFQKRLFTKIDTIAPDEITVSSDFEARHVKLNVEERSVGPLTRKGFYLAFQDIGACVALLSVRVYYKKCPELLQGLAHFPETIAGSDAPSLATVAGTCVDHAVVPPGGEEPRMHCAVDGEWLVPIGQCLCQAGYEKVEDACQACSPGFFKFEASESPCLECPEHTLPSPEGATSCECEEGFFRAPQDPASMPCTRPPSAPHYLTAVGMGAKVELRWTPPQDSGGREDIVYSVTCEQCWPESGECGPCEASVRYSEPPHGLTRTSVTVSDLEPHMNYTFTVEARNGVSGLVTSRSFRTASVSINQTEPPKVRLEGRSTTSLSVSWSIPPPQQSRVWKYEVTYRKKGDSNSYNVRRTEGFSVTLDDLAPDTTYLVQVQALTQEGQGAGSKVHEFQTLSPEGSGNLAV

Row | Binder | Ki [nM]
1 | B1 | 9.8
2 | B2 | 30
3 | B3 | 15.4
4 | B4 | 15.2
5 | B5 | 20.6
6 | B6 | 35.4
7 | B7 | 46.2
8 | B8 | 53.9
9 | B9 | 56.1
10 | B10 | 20
11 | B11 | 10.9
12 | B12 | 1.64
13 | B13 | 228
14 | B14 | 13.2
15 | B15 | 278
16 | B16 | 70
17 | B17 | 85
18 | B18 | 70.8
19 | B19 | 94.8
20 | B20 | 57
21 | B21 | 62.1
22 | B22 | 63.2
23 | B23 | 130

Row | Binder | Ki [nM]
24 | B24 | 97.3
25 | B25 | 39
26 | B26 | 159
27 | B27 | 1700
28 | B28 | 268
29 | B29 | 348
30 | B30 | 282
31 | B31 | 160
32 | B32 | 400
33 | B33 | 321
34 | B34 | 81.7
35 | B35 | 188
36 | B36 | 320
37 | B37 | 127
38 | B38 | 140
39 | B39 | 155
40 | B40 | 234
41 | B41 | 142
42 | B42 | 185
43 | B43 | 144
44 | B44 | 84.4
45 | B45 | 115
46 | B46 | 184
